The values that follow come from doi:10.1101/2024.04.29.591687 (bioRxiv, 2024).

The experiment has as its target T1, tGFP-tagged mCLDN5 (mouse, UniProt O54942 1-218).
T1 sequence: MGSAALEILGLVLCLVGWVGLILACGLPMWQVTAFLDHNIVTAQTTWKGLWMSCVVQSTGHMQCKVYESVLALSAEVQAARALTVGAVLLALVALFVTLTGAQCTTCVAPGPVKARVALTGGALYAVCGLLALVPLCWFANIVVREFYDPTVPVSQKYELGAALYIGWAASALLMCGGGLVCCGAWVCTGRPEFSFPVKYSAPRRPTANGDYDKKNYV
Briefly: MST.

Regarding ESVLALNAEVQAAR [f1-C5C2], the Kd – broadly, the free concentration of one partner at which half of the binding sites on the other are occupied at equilibrium, for simple one-to-one binding – was 68.3 µM.
